Assay results as given in publication PMC10075959.

Legend:
[1] = biological target: MERS N-protein LRS peptide (comprising the predicted helix) (MERS); experiment: AUC
[2] = biological target: human coronavirus NL63 N-protein LRS peptide (comprising the predicted helix) (human coronavirus NL63); experiment: AUC; sedimentation velocity of peptides at different concentrations, 20°C, 55,000 rpm, working buffer (10.1 mM Na2PO4, 1.8 mM KH2PO4, 2.7 mM KCl, 10 mM NaCl, pH 7.40), also with 10% TFE; c(s) distributions; monomer to oligomer (trimer)
[3] = biological target: SARS-CoV N-protein LRS peptide (comprising the predicted helix) (SARS-CoV); experiment: AUC
[4] = biological target: murine hepatitis virus (MHV) N-protein LRS peptide (comprising the predicted helix) (murine hepatitis virus); experiment: AUC; sedimentation velocity of peptides at different concentrations, 20°C, 55,000 rpm, working buffer (10.1 mM Na2PO4, 1.8 mM KH2PO4, 2.7 mM KCl, 10 mM NaCl, pH 7.40), also with 10% TFE; c(s) distributions; monomer to oligomer (trimer)
[5] = biological target: 229E-related bat coronavirus N-protein LRS peptide (comprising the predicted helix) (229E-related bat coronavirus); experiment: AUC

**Q.** “MERS N-protein LRS peptide (comprising the predicted helix)” was tested. Which stoichiometry N [1] did it give?
**A.** Its stoichiometry N is 3.

**Q.** How did the stoichiometry N [2] turn out when “human coronavirus NL63 N-protein LRS peptide (comprising the predicted helix)” was run?
**A.** The stoichiometry N was 3.

**Q.** Which stoichiometry N [3] does the source give for “SARS-CoV N-protein LRS peptide (comprising the predicted helix)” here?
**A.** The stoichiometry N was 3.

**Q.** Which stoichiometry N [4] does the source give for “murine hepatitis virus (MHV) N-protein LRS peptide (comprising the predicted helix)” here?
**A.** The stoichiometry N was 3.

**Q.** “229E-related bat coronavirus N-protein LRS peptide (comprising the predicted helix)” was tested. Which stoichiometry N [5] did it give?
**A.** The stoichiometry N was 3.
